Measurements taken from patent US20150239929A1 (PORTOLA PHARMACEUTICALS, published 2015).

B1: Soybean Trypsin Inhibitor (STI), immobilised on affinity resin (other, Glycine max (soybean), UniProt P01070 25-205, looked up)
chain: DFVLDNEGNPLENGGTYYILSDITAFGGIRAAPTGNERCPLTVVQSRNELDKGIGTIISSPYRIRFIAEGHPLSLKFDSFAVIMLCVGIPTEWSVVEDLPEGPAVKIGENKDAMDGWFRLERVSDDEFNNYKLVFCPQQAEDDKCGDIGISIDHDDGTRRLVVSKNKPLVVQFQKLDKESL
notes: also called STI-Agarose
B2: r-Antidote (fXa derivative, cleaved two-chain polypeptide of SEQ ID NO: 2) (enzyme)
light: ANSFLFWNKYKDGDQCETSPCQNQGKCKDGLGEYTCTCLEGFEGKNCELFTRKLCSLDNGDCDQFCHEEQNSVVCSCARGYTLADNGKACIPTGPYPCGKQTLER
heavy: IVGGQECKDGECPWQALLINEENEGFCGGTILSEFYILTAAHCLYQAKRFKVRVGDRNTEQEEGGEAVHEVEVVIKHNRFTKETYDFDIAVLRLKTPITFRMNVAPACLPERDWAESTLMTQKTGIVSGFGRTHEKGRQSTRLKMLEVPYVDRNSCKLSSSFIITQNMFCAGYDTKQEDACQGDAGGPHVTRFKDTYFVTGIVSWGEGCARKGKYGIYTKVTAFLKWIDRSMKTRGLPKAKSHAPEVITSSPLK
notes: Made in CHO cells; the two chains are linked by a disulfide bond; also called target protein; functional protein

Assays:
[1] = biological target: B2; assay: affinity column loading of purified r-Antidote, 1 mL resin, 20 mM Tris/150 mM NaCl pH 7.4
[2] = biological target: Aprotinin, immobilised on agarose (Aprotinin-Agarose, catalog #A2268) (UniProt P00974 36-93); assay: affinity column loading, 1 mL resin, 20 mM Tris/150 mM NaCl pH 7.4
Method: Commercially available affinity resins were screened for their efficacy in purifying r-Antidote. Various affinity resins were packed into a column (such as a Tricorn column, GE) with 1 mL of resin. Following sanitization according to manufacturer's recommendations, the column was equilibrated with 20 mM Tris/150 mM NaCl at pH 7.4, followed by testing their ability to bind r-Antidote in the same buffer. r-Antidote at a concentration of 0.145 mg/mL in PBS (Phosphate Buffered Saline), was loaded onto the column at a flow rate of 1 mL/min by injection (1 mL).

binding result [1]	Binder	binding result [2]
binds	B1	
	B2	no binding (tested: 0.145 mg/mL (1 mL injected))
